Values of other authors, collected in publication PMC7083049.

Molecular target: histone H4 (Homo sapiens) (UniProt P62805)

Kd: 2000 nM
Substance: JMJD2A Tudor domains (from UniProt O75164)
